Assay results taken from patent US20200016206A1.

Biological target: IL-2Rαβ (UniProt P01589)
Assay: in vitro binding affinity against IL-2 as standard; method presumably the SPR of Example 2 (Biacore T-100, receptor-Fc captured, EC50 from RU against concentration)

Chain of UniProt P01589 (P01589 22-213 limits assumed): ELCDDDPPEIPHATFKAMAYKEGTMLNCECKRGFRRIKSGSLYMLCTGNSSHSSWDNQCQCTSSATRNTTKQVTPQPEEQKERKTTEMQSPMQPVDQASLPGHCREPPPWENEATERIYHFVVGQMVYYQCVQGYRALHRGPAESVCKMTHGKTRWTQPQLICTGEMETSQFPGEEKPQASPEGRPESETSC

- fold decrease in affinity relative to IL-2: 60 fold
Substance: RSLAIL-2 (rIL-2 with the aldesleukin sequence, releasably PEGylated with mPEG2-C2-Fmoc-20kD-NHS) (from UniProt P60568 22-153) (ligand)
